This test deals with T1, His-tagged TopA67 (N-terminal region of TopA, 67 kDa, residues 1-597) (E. coli, UniProt P06612 1-597).
T1 construct: DNA topoisomerase I (TopA) of E. coli, residues 1-597; source: E. coli BL21(DE3), 1 mM IPTG 3 h 37°C, purified (Ni-NTA agarose); not shown: His-tag, N-terminal, kept
T1 sequence (looked up): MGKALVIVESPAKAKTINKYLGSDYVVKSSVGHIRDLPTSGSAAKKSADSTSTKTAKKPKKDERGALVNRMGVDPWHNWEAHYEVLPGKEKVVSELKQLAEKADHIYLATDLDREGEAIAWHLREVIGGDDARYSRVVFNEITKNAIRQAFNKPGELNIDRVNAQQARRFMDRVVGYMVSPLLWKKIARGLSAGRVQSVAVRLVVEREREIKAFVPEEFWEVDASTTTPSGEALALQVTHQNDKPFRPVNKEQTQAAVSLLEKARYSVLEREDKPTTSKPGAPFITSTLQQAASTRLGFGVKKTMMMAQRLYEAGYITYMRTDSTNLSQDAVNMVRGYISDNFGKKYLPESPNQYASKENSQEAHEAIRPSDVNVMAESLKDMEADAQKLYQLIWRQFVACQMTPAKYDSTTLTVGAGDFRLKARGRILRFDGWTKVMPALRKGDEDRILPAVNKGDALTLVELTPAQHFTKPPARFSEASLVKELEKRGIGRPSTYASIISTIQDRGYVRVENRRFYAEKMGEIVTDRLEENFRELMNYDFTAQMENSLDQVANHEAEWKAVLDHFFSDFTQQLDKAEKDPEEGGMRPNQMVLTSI
Put plainly: co-IP; purified PrS-TopAI and TopA, TopA67 or TopA14 at a molar ratio of 1:5 in buffer A (20 mM Tris-HCl pH 8.0, 150 mM NaCl), in the absence of DNA; anti-protein S antiserum, protein G agarose, 4°C; western blot with anti-His antibody. Conditions: both partners purified.

B1: PrS-TopAI (N-terminal domain of Protein S fused to TopAI, His-tagged) (natural protein)
chain: not shown
notes: also called PrS-YjhX; YjhX
With B1, the binding result is “binds”.

(Values after paper PMC4666372 (Nucleic Acids Research, 2015).)
